Results on one molecule are retold here after patent US7807387B2, “Biological agent that causes IL-6 receptor release” (Meyer Pharmaceuticals LLC, priority 2003, dated 2010).

Marks after values point to notes of the source that are not given here.

For data set [1], the system named is Experimental Autoimmune Encephalomyelitis. Kind of data set: Experimental Autoimmune Encephalomyelitis (EAE). Format: in vivo, SJL/J mice. To be noted: for Day of Onset (±SEM): p < 0.001; for Peak Clinical Score (±SEM): scale 0-5. The procedure: The EAE model (Brown et al., Lab. Invest. 45:278, 1981) was conducted as follows. Female SJL/J mice (6 weeks old) were randomized into 3 groups of 10. 2 mL of Myelin Proteolipid Peptide (PLP) was emulsified in 3 mL of Complete Freund's Adjuvant containing an additional 20 mg of M. tuberculosis H37Ra. On day 0, mice were immunized subcutaneously in the base of the tail and footpad with a total of 60 μg PLP. They were also given […] pertussis toxin i.p. on days 0 and 2. MP8 or saline control was administered s.c. every day from day −3 to day 20. Progression of the disease was measured up to day 21 on the following scale: 0≡normal; 1≡limp tail or hind limb weakness; 2≡both limp tail and hind limb weakness; 3≡partial hind limb paralysis; 4≡complete hind limb paralysis; 5≡moribund or sacrificed.

The target of the next data set is T1, p55 TNF Receptor (Homo sapiens, UniProt P19438).
T1 construct: endogenous in cells; host or cells: THP-1
T1 sequence (P19438 30-455): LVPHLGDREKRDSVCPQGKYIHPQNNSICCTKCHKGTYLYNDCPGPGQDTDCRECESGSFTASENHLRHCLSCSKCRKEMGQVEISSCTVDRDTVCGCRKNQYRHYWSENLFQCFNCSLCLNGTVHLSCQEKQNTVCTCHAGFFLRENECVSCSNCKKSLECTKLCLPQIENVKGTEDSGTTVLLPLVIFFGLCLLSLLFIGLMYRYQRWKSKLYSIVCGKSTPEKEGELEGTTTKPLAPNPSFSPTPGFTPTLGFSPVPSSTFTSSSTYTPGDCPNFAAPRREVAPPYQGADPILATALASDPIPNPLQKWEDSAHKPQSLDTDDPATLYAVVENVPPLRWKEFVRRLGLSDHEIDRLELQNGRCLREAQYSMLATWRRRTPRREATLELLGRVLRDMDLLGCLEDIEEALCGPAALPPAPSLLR
Kind of data set: Cleavage of cell surface p55 TNF receptor on THP-1 cells. Format: cell-based. To be noted: 45 minutes at 37° C. How it is done:
This cell line expresses both the p55 TNF receptor and the p75 TNF receptor. After incubating for 45 minutes at 37° C., the cells were washed, immunostained for cell surface receptor, and counted by flow cytometry.

In data set [2] the test system is carrageenan-induced paw edema. The experiment in a line: Carrageenan-induced paw edema. To be noted: given one hour before carrageenan; paw volume three hours later; MP8 subcutaneously, indomethacin by mouth. The format is in vivo, Sprague Dawley rats. The procedure: Based on the standard model (Winter et al., Proc Soc Exp Biol Med 111:544, 1962; Hansra et al., Inflammation 24:141, 2000), the experiment was performed as follows. Male Sprague Dawley rats were randomized by weight into three treatment groups. The animals were administered MP8 or control solution subcutaneously, or indomethacin by mouth. One hour later, they were injected in the left hind paw with a sterile solution of 1% carrageenan suspension in water, in order to induce swelling. Three hours later, the volume of the injected paw was measured by water displacement in a water plethysmograph (mean±SEM; 10 animals per group).
Male Sprague Dawley rats were administered with test protein or indomethacin (anti-inflammatory control), and then challenged in a hind footpad with carrageenan, as in Example 12.
Background: Carrageenan injected into the paw causes an acute inflammation.

Data set [3] can be described thus: Clearance of MP8 protein from the circulation by dot-blot analysis. To be noted: mice. The format is in vivo.
For data set [4], the system named is human IL-1 type 1 and type 2 receptors. The experiment in a line: FRET peptide cleavage assay, IL-1 receptor peptides. The format is biochemical. How it is done:
(§1) Cytokine-specific proteolytic activity can rapidly be quantified by Fluorescence Resonance Energy Transfer (FRET). Peptides having the amino acid sequence of the TNF Receptor or other protein substrates are labeled at opposite ends with a fluorescence emitter and a fluorescence quencher. The peptide is then incubated with a source of receptor cleaving enzyme, and fluorescence is measured. The quenching group normally absorbs fluorescence from the emitter. But enzymatic cleavage of the peptide decouples the quenching group, and fluorescence emission increases proportionally.
(§2) The peptides used as substrates in the cleavage assay were taken from the known sites of proteolytic cleavage of the whole protein. The peptides were labeled with the fluorescence emitter (Edans-●) at the C-terminal, and the quenching hapten (Dabcyl-▴) at the N-terminal.
(§3) The assay is conducted in the presence of the metal cations Zn^++ (0.1 mM) and Ca^++ (2 mM), and corrected for cleavage in the presence of EDTA (20 mM). Dependence on divalent cations confirms that the enzyme activity measured in this assay is a metalloprotease. The assay mixture also contains a cocktail of protease inhibitors and bovine albumin. Cleavage is measured as the net change in fluorescence emission after incubating the enzyme with the peptide at 37° C. for 3 hours. […]

Data set [5] relates to TNF receptor. The experiment in a line: TNF receptor release in vivo after subcutaneous injection. Also on record: species or system Balb/c mice. The procedure: To determine if the enzyme cleaves TNF receptors in vivo, 100,000 FU of purified MP8 was injected subcutaneously as a 500 μL bolus into female Balb/c mice. Control mice were injected with saline. Serum was sampled periodically, and tested for cytokine levels using ELISA kits from R&D System.

In the next data set the target is IL-6 Receptor (Homo sapiens, UniProt P08887). Kind of data set: FRET peptide cleavage assay, IL-6 receptor peptide. The format is biochemical. Particulars: Zn++ 0.1 mM, Ca++ 2 mM, corrected for EDTA, 37° C. for 3 hours. How it is done: as §1, §2, §3
For data set [6], the system named is TNF receptor. Kind of data set: Cell surface cleavage assay, release of TNF receptor isoforms by enzyme immunoassay. Format: cell-based. Particulars: 25 μg protein with 2.5×10^6 cells; (treated—untreated)/untreated. The procedure: To determine cell surface cleavage activity, 25 μg of MP8-FL2 was combined with 2.5×10^6 cells. Release of both TNF receptor isoforms was determined by enzyme immunoassay as (treated—untreated)/untreated.

The test system of data set [7] is experimentally induced Asthma. Kind of data set: Experimentally induced asthma (ovalbumin sensitization and aerosol challenge). The format is in vivo, mice. To be noted: treatment 1 h before aerosol challenge, 24 h and 48 h afterwards; lavage at 72 h. How it is done: Mice were sensitized on Days 0, 7, and 14 with 10 μg ovalbumin in 1% aluminum hydroxide. On Day 21, the mice were challenged with the allergen in aerosol form (5% wt/vol in saline). Treatment with MP8 or control was administered 1 h before the aerosol challenge, and 24 h and 48 h afterwards. On Day 24 (72 h after the challenge), lungs were ravaged under anesthesia with 2×0.5 mL buffer to recover cells in the alveolar fluid.

The mark [8] stands for this setting: 100,000 FU s.c. every day from day −3 to day 20.
[9] abbreviates: 300,000 FU s.c. every day from day −3 to day 20.

B1: MP8: polypeptide having the sequence of SEQ. ID NO:41 (usually with a HIS tag); cytokine receptor releasing protein expressed in E. coli (protein, listed as Homo sapiens)
chain: WIQRIRHEGNSTVYEWRTGTEPSVVERPHLEELPEQVAEDAIDWGDFGVEAVSEGTDSGISAEAAGIDWGIFPESDSKDPGGDGIDWGDDAVALQITVLEAGTQAPEGVARGPDALTLLEYTETRNQFLDELMELEIFLAQRAVELSEEADVLSVSQFQLAPAILQGQTKEKMVTMVSVLEDLIGKLTSLQLQHLFMILASPRYVDRVTEFLQQKLKQSQLLALKKELMVQKQQEALEEQAALEPKLDLLLEKTKELQKLIEADISKRYSGRPVNLMGTSL
modifications: HIS tag
notes: ID NO:41 (usually with a HIS tag); cytokine receptor releasing protein expressed in E. coli
B1: in data set [1] (setting [8]), the “Incidence of Disease” value was 5 out of 7, the “Day of Onset (±SEM)” value is reported as 18.0 ± 0.8 ^a and the “Peak Clinical Score (±SEM)” value amounted to 2.4 ± 0.7. Moreover, in data set [1] (setting [9]), the “Incidence of Disease” value was 3 out of 7 and the “Day of Onset (±SEM)” value is listed as 18.0 ± 2.5 ^a. The “Peak Clinical Score (±SEM)” value in [1] (300,000 FU s.c. every day from day −3 to day 20, p < 0.01) was 1.0 ± 0.5 ^b. The emergence of symptoms in data set [1] (delayed from 12 days) was found to be 18 days. For the same molecule, the “weight gain of treated animals” value in data set [1] (mouse, in vivo) is on record as “continued to show normal weight gain”. In the data set with p55 TNF Receptor, the “cleavage of p55 TNF receptor on the surface of cells” value was “cleaves”. Also, the “inhibition of edema formation” value in [2] is listed as 62%. Further, in data set [3], the “first clearance half-time from the circulation” value is about 39 h. Further, the “cleavage of IL-1 receptor” value in data set [4] is recorded as “cleaves”. Also, the “persistence of the effect after administration” value in the data set on TNF receptor [5] (100,000 FU subcutaneously) is 48 h. In addition, the “persistence of released receptors in the circulation” value in the data set with TNF receptor [5] (other experiments) is on record as “at least 6 days”. For the same molecule, the “cleavage of IL-6 receptor peptide” value in the data set with IL-6 Receptor is listed as “high activity”. For the same molecule, the “cleavage and release of TNF receptor from the cell surface” value in the data set with TNF receptor [6] was “cause cleavage and release of TNF receptor, with preference for the R1 (p55) isoform”. In addition, in data set [7], the proportion of eosinophils entry is reported as “substantially reduced” and the “white blood cells migrating into the alveolar fluid” value is given as “reduced the number of the white blood cells migrating into the alveolar fluid”.
